This is an account of results in patent US20040063907A1 (published 2004).

Assay [1] concerns the target T1, Beta galactosidase (negative control protein purified from E. coli) (UniProt P00722 1-1024 = β-galactosidase, limits assumed).
T1 construct: also called β-galactosidase; p-galactosidase
In words: ELISA, hybridoma supernatant on coated protein, anti-mouse HRP.

Another assay concerns the target HLA-A*0201 (human). As to the kind of experiment: fluorescence polarization competition, test peptide at 100 uM against the fluorescent-labeled peptide on HLA-A*0201, from Ymax.
In a further assay the target is soluble HLA-B*0702 (human). In words: fluorescence polarization competition against the fluorescent labeled standard on soluble HLA-B*0702.
Assay [2] addresses T2, purified recombinant C35 protein generated in E. coli (human, UniProt Q9BRT3 1-115, limits assumed).
T2 construct: also called hC35 protein; soluble C35 protein
T2 sequence: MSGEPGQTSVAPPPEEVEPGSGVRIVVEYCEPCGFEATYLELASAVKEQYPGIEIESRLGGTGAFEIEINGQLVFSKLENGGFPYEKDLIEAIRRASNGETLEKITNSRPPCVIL
In words: ELISA, hybridoma supernatant on coated C35 protein, anti-mouse HRP.

In assay [3] the target is T3, C35 protein, bacterially synthesized (recombinant human C35 purified from E. coli) (human, UniProt Q9BRT3 1-115, limits assumed).
T3 construct: also called hC35; recombinant C35 protein
T3 sequence: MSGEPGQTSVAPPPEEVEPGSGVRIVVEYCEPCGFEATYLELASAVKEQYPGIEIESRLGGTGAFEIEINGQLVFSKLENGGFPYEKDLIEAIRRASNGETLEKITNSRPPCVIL
In words: ELISA screen of hybridoma supernatants on plates coated with C35 protein.

Assay [4] concerns the target T4, C35 as expressed by cells or tissue (flow cytometry, immunohistochemistry) (human, UniProt Q9BRT3 2-112).
T4 construct: also called endogenous C35
T4 sequence: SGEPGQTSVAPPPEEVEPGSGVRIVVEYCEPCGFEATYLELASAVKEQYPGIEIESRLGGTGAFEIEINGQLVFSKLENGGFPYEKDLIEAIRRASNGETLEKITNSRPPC
As to the kind of experiment: immunohistochemistry of breast tumour sections.

Assay [5] deals with T5, C35 polypeptide, as expressed by human tumor cells and breast tumor tissue (human, UniProt Q9BRT3 2-112).
T5 construct: 115 amino acid protein with a predicted prenylation motif CVIL at 112-115; It was detected on unfixed, non-permeabilized tumor cells and in paraffin sections; also called C35 protein; C35 antigen
T5 sequence: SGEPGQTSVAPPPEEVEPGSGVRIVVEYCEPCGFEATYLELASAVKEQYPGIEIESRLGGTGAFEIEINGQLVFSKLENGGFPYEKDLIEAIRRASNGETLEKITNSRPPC
In words: immunohistochemistry on paraffin sections, affinity purified antibody.

T1 sequence (P00722 whole entry): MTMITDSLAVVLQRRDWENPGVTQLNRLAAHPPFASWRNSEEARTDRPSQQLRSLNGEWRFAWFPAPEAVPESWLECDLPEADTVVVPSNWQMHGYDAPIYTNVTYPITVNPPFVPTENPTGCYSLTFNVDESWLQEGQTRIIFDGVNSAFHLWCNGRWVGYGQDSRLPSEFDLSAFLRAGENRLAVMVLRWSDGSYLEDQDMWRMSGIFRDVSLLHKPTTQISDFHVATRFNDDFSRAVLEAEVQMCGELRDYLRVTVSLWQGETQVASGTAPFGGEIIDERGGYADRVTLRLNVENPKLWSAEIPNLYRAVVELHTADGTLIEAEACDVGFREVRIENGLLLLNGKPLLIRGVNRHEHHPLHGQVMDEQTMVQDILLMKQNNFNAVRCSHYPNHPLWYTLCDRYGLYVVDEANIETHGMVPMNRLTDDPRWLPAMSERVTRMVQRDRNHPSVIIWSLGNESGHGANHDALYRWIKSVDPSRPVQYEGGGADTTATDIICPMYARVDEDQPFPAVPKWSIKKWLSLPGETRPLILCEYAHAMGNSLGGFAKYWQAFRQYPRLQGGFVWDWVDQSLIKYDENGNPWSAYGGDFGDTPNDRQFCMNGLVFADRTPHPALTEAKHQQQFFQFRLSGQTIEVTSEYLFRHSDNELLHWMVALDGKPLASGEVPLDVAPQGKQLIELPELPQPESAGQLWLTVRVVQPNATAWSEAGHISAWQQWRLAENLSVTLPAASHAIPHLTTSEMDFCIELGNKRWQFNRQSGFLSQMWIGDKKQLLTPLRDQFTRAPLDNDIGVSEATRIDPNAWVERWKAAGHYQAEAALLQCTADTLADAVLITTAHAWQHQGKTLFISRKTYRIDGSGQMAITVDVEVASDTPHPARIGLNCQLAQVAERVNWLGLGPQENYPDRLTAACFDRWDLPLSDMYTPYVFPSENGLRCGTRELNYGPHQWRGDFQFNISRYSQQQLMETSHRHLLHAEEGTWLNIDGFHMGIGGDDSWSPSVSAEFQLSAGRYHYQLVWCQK

B1: 1B3 monoclonal antibody (antibody, mouse IgG1, V domains shown)
VH: EVQLQESGPSLVKPSQTLSLTCSVTGDSITSGYWNWIRKFPGNKLEYVGYISYSGGTYYNPSLKSRISITRDTSKNHYYLQLNSVTTEDTATYYCARGAYYGGAFFPYFDVWGAGTTVTVSS
VL: DVQITQSPSFLAASPGETITINCRASKYISKHLVWYQEKPGETKKLLIYSGSTLQSGLPSRFSGSGSGTDFTLTISSLEPEDFAMYYCQQHNEYPLTFGAGTKLELK
notes: Mouse IgG1, tested as hybridoma supernatant
In the case of B1, the binding result in assay [1] is given as “no binding”.

B2: 3E10 monoclonal antibody (antibody, V domains shown)
VH: EVQLQESGPSLVKPSQTLSLTCSVTGDSITSGYWNWIRKFPGNKLEYVGYISYSGGTYYNPSLKSRISITRDTSKNHYYLQLNSVTTEDTATYYCARGAYYGGAFFPYFDVWGAGTTVTVSS
VL: DVQITQSPSFLAASPGETITINCRASKYISKHLVWYQEKPGETKKLLIYSGSTLQSGLPSRFSGSGSGTDFTLTISSLEPEDFAMYYCQQHNEYPLTFGAGTKLELK
Consider B2, for which, in assay [1], the binding result is given as “no binding”. For GTGAFEIEI [C35 peptide G61 to I69], in the assay with HLA-A*0201, the “% inhibition” value stood at 46.5%.

In the case of TGAFEIEIN (also called TGAFEIEIN) [C35 peptide T62 to N70], in the assay with soluble HLA-B*0702, the “% inhibition” value amounted to 38.8%.

Take ITNSRPPCV [C35 peptide I105 to V113]: the “% inhibition” value in the assay with HLA-A*0201 is 86.4%. As for NSRPPAVIL [C35 peptide N107 to L115 (analog with Ala substituted for Cys at 112)], the “% inhibition” value with soluble HLA-B*0702 came to 68.2%. On the same count and under the same terms, the result for KITNSRPPA [C35 peptide K104 to A112 (analog with Ala substituted for Cys at 112)] reads 69.4%. TYLELASAV [C35 peptide T38 to V46]: in the assay with HLA-A*0201, the “% inhibition” value was found to be 47.3%. On the same count and under the same terms, under SGVRIVVEY [C35 peptide S21 to Y29] stands 90.8%; under SVAPPPEEV [C35 peptide S9 to V17], 96.9%.

Consider GAFEIEING (also called GAFEIEING) [C35 peptide G63 to G71], for which the “% inhibition” value in the assay with soluble HLA-B*0702 is 51.4%. The same measure, in the same setting: the result for EPGQTSVAP [C35 peptide E4 to P12] reads 54.6%.

B3: 1E11 monoclonal antibody (antibody, mouse IgG1, V domains shown)
VH: DVQLQESGPGLVKPSQSLSLTCSVTGYSITSGYFWNWIRQFPGNKLEWMGYISYDGSNNSNPSLKNRISFTRDTSKNQFFLKFNSVTTDDSAAYYCTRGTTGFAYWGQGTLVTVSA
VL: QIVLTQSPAIMSASPGEKVTISCSASSSVSYMNWYQQKPGSSPKPWIYHTSNLASGVPARFSGSGSGTSYSLTISSMEAEDAATYYCQQYHSYPPTFGGGTKLEIK
notes: also called IE11
Regarding B3, the binding result is “no binding” in assay [1] and “binds” in assay [2].

B4: monoclonal antibody of hybridoma clone 1F2 (antibody, V domains shown)
VH: DVQLQESGPGLVKPSQSLSLTCSVTGYSITSGYFWNWIRQFPGNKLEWMGYISYDGSNNSNPSLKNRISFTRDTSKNQFFLKFNSVTTDDSAAYYCTRGTTGFAYWGQGTLVTVSA
VL: QIVLTQSPAIMSASPGEKVTISCSASSSVSYMNWYQQKPGSSPKPWIYHTSNLASGVPARFSGSGSGTSYSLTISSMEAEDAATYYCQQYHSYPPTFGGGTKLEIK
notes: also called IF2
In the case of B4, the binding result in assay [3] and in assay [4] was “binds” in each case.

B5: 1F2 monoclonal antibody (antibody, V domains shown)
VH: DVQLQESGPGLVKPSQSLSLTCSVTGYSITSGYFWNWIRQFPGNKLEWMGYISYDGSNNSNPSLKNRISFTRDTSKNQFFLKFNSVTTDDSAAYYCTRGTTGFAYWGQGTLVTVSA
VL: QIVLTQSPAIMSASPGEKVTISCSASSSVSYMNWYQQKPGSSPKPWIYHTSNLASGVPARFSGSGSGTSYSLTISSMEAEDAATYYCQQYHSYPPTFGGGTKLEIK
notes: Mouse IgG1 kappa; In the VL, one printed codon 'get' was read as gct; also called IF2
As for B5, the binding result is “binds” in assay [5], “no binding” in assay [1] and “binds” in assay [2].

B6: monoclonal antibody of hybridoma clone 1E11 (antibody, mouse IgG1, V domains shown)
VH: DVQLQESGPGLVKPSQSLSLTCSVTGYSITSGYFWNWIRQFPGNKLEWMGYISYDGSNNSNPSLKNRISFTRDTSKNQFFLKFNSVTTDDSAAYYCTRGTTGFAYWGQGTLVTVSA
VL: QIVLTQSPAIMSASPGEKVTISCSASSSVSYMNWYQQKPGSSPKPWIYHTSNLASGVPARFSGSGSGTSYSLTISSMEAEDAATYYCQQYHSYPPTFGGGTKLEIK
notes: Mouse IgG1 kappa, immunization BCA34.hC35; See the note of 1F2 for a translation; also called IE11
On to B6, for which the binding result in assay [3] is on record as “binds”. In the case of FEIEINGQL [C35 peptide F65 to L73], the “% inhibition” value in the assay with HLA-A*0201 was determined as 74.8%. Take ITNSRPPAV [C35 peptide I105 to V113 (analog with Ala substituted for Cys at 112)]: the “% inhibition” value with soluble HLA-B*0702 stood at 45.2%.
